Read-outs that look alike come from different tables or passages of the source.
How the values were obtained:
[1] = target: oxidized nDsbD (N-terminal periplasmic globular domain of DsbD, wild type) (E. coli) (UniProt P36655); test: SPR
Asp455 = Asp455 (UniProt position 474, KPVMLDLYADW); settings: isolated domain, cited from earlier work
Cys461 = Cys461 (UniProt position 480, LYADWCVACKE); test: NMR; settings: reduced cDsbD (Cys461 and Cys464 as free thiols), isolated from nDsbD; cited from earlier work
[2] = target: oxidized V462A-cDsbD (E. coli); test: NMR titration
[3] = target: oxidized D455N/E468Q-cDsbD (E. coli); test: NMR titration
[4] = target: oxidized cDsbD (C-terminal periplasmic globular domain of DsbD, wild type) (E. coli); test: NMR titration
Sequence of oxidized cDsbD (C-terminal periplasmic globular domain of DsbD, wild type) (E. coli) (P36655 20-565): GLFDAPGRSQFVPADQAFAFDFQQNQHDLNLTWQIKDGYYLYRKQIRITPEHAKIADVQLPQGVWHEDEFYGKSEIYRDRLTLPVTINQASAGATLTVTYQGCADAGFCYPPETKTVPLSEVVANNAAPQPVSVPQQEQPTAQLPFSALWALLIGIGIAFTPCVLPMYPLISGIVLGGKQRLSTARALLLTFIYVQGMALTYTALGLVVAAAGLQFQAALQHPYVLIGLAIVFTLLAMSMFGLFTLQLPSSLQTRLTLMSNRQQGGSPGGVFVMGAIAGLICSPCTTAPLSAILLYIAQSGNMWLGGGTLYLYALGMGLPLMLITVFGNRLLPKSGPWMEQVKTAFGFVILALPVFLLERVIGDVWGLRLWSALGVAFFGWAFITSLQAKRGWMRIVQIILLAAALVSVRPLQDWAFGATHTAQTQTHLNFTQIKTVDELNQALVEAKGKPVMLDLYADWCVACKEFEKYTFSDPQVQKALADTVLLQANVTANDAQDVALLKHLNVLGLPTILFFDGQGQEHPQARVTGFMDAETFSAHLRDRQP

With C461A-cDsbD (domain or fragment) the Kd [1] was 86 µM.

In the case of “Thiol:disulfide interchange protein DsbD, C-terminal periplasmic thioredoxin-like domain (cDsbD) (Escherichia coli)”, the pKa (Asp455; oxidized cDsbD (Cys461-Cys464 disulfide)) is listed as 6.6, the pKa (Asp455; reduced cDsbD (Cys461 and Cys464 as free thiols)) is listed as 5.9 and the pKa (Cys461) is listed as 10.5.

B1: oxidized nDsbD (N-terminal periplasmic globular domain of DsbD, wild type) (domain or fragment)
chain: LFDAPGRSQFVPADQAFAFDFQQNQHDLNLTWQIKDGYYLYRKQIRITPEHAKIADVQLPQGVWHEDEFYGKSEIYRDRLTLPVTINQASAGATLTVTYQGCADAGFCYPPETKTVPLSEVVANNAAPQPV
modifications: Cys103-Cys109 disulfide bond (oxidized state)
In the case of B1, the fold weaker than with wild-type cDsbDox [2] is reported as 5 to 10 fold and the Kd [3] is reported as 2000 µM.

B2: C109A-nDsbD (domain or fragment)
chain: LFDAPGRSQFVPADQAFAFDFQQNQHDLNLTWQIKDGYYLYRKQIRITPEHAKIADVQLPQGVWHEDEFYGKSEIYRDRLTLPVTINQASAGATLTVTYQGCADAGFAYPPETKTVPLSEVVANNAAPQPV
For B2, the Kd [4] was 2400 to 3500 µM.

— article PMC3137068
